Laboratory results from US20130143953A1 (TRUSTEES OF TUFTS COLLEGE, published 2013).

B1: human CD59, GPI-anchored membrane form expressed from the AdCAGCD59 vector (protein, UniProt P13987 26-102, looked up)
chain: LQCYNCPNPTADCKTAVNCSSDFDACLITKAGLQVYNKCWKFEHCNFNDVTTRLRENELTYYCCKKDLCNFNEQLEN
modifications: glycosyl phosphatidyl inositol (GPI) anchor at asparagine 77 of the mature protein; N-glycosylated
B2: membrane-independent (soluble) human CD59 lacking the C-terminal 26 amino acids, expressed from AdCAGsCD59 or AAVCAGsCD59 (other)
chain: B1 chain
modifications: N-glycosylated forms (14-18 kDa)

How the values were obtained:
[1] = biological target: human membrane attack complex (C5b-9) formed from normal human serum on mouse cells (human) (UniProt P01031); experiment: cell-based or functional assay
[2] = biological target: human membrane attack complex (C5b-9) formed from normal human serum on mouse cells (human, UniProt P01031 752-1676; P13671 22-934; P10643 23-843; P07357 31-584; P07358 55-591; …); experiment: cell-based or functional assay

| Binder | complement mediated cell lysis (PI uptake, FACS; hepa-1c1c7 cells, 1000 vp/cell AdCAGCD59, 1% NHS) [1] [%] | fold reduction of complement mediated cell lysis (PI uptake, FACS; hepa-1c1c7 cells, 1000 vp/cell AdCAGCD59, 1% NHS) [1] [fold] | inhibition of cell lysis at 250 vp/cell AdCAGCD59 (hepa-1c1c7 cells, NHS) [1] [%] | inhibition of cell lysis at 500 vp/cell AdCAGCD59 (hepa-1c1c7 cells, NHS) [1] [%] | reduction in MAC immunofluorescence intensity on mouse corneal endothelium (ex vivo, 50% NHS, 20 minutes) [1] [%] | reduction in MAC immunofluorescence on mouse eyecups, 7.5 minutes NHS [1] [%] | reduction in MAC immunofluorescence on mouse eyecups, 15 minutes NHS [1] [%] | reduction in mean MAC immunofluorescence intensity on mouse eyecup RPE at the area of GFP expression [1] [%] | protection against cell lysis relative to AdCAGGFP-conditioned media with NHS (Hepa-1c1c7 cells) [2] [%] |
| --- | --- | --- | --- | --- | --- | --- | --- | --- | --- |
| B1 | 12.3 | 8 | > 50 | > 70 | 86 | 68 | 56 | 55 |  |
| B2 |  |  |  |  |  |  |  |  | 34.1 |
